Data from patent publication US20260139049A1 (PEDIATRIC IMMUNITY AND HEALTHCARE GUANGZHOU BIOTECHNOLOGY, published 2026).
Residue numbers refer to the chain shown, from its start.

Experiments:
[1] = target: T1, human CLDN6 (human, UniProt P56747 1-220); assay: FACS on 293T-CLDN6 cells, 10 µg/mL
T1 construct: whole, on cells; four-transmembrane protein; also called claudin-6; HEK293T-CLDN6
T1 sequence (looked up): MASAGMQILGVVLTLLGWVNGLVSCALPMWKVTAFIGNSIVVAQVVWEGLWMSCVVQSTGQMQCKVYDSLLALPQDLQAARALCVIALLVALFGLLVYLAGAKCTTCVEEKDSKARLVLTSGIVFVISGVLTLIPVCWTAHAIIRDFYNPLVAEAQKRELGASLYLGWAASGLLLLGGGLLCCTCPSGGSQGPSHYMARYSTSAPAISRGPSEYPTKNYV

[2] = target: T2, monkey CLDN6 (Cyno CLDN6) (monkey (Cyno)); assay: FACS on CHO-K1-Cyno CLDN6 cells
T2 construct: whole, on cells; also called CHO-K1-Cyno CLDN6

[3] = target: T1, human CLDN6; assay: FACS on HEK293T-CLDN6 cells
Protocol: (§1) To detect a binding capacity of a chimeric or humanized antibody to CLDN6, a CLDN6-expressing cell line HEK293T-CLDN6 and a CLDN6-negative control cell line HEK293T were washed three times with PBS. 1×10⁵ test cells and 50 μL of an antibody solution to be tested were added to a 96-well plate, and incubated at 4° C. for 1 h. The cells were then washed three times with PBS. […] Finally, cells were washed three times with PBS, and signals were read using FACS.
(§2) An EC50 value (a concentration of an antibody that binds to half of binding sites at equilibrium) is calculated through nonlinear regression.

[4] = target: T3, human CLDN9 (human, UniProt O95484 1-217); assay: FACS on 293T-CLDN9 cells, 10 µg/mL
T3 construct: whole, on cells; also called HEK293T-CLDN9
T3 sequence (looked up): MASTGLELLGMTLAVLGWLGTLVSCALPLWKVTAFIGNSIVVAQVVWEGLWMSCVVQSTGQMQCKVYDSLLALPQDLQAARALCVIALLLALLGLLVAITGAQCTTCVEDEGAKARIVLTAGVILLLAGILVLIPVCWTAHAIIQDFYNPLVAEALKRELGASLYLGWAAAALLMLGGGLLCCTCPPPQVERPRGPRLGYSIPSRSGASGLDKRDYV
Protocol: (§3) 50 μL of an antibody to be tested was added to a 96-well plate, then 1× 10⁵ cells were added to each well, and incubation was conducted at 4° C. for 1 h. Cells were washed three times with PBS. […] Finally, cells were washed three times with PBS, and signals were read using FACS. Binding capacities of the antibody to CLDN9, CLDN3, and CLDN4 were analyzed separately based on detection data.

[5] = target: T1, human CLDN6; assay: FACS on PA-1 tumour cells; target on the cells taken as CLDN6
Protocol: (§4) The specific binding of a chimeric antibody to a tumor cell was detected by FACS, and an EC50 value was calculated accordingly to evaluate an inhibitory effect of the chimeric antibody on the tumor cell.
as §3, with “1×10⁵” for “1× 10⁵”, “A binding capacity” for “Binding capacities”, “each tumor cell was” for “CLDN9, CLDN3, and CLDN4 were”, “analyzed” for “analyzed separately”

[6] = target: T1, human CLDN6; assay: ratio of FACS Geom.Mean on 293T-CLDN6 over 293T-CLDN9, 10 µg/mL
Protocol: as §3

[7] = target: T1, human CLDN6; assay: ratio of FACS signals on CLDN6 cells over CLDN9 cells
Protocol: as §3

[8] = target: T4, human CLDN4 (human, UniProt O14493 1-209); assay: FACS on 293T-CLDN4 cells, 10 µg/mL
T4 construct: whole, on cells; also called HEK293T-CLDN4
T4 sequence (looked up): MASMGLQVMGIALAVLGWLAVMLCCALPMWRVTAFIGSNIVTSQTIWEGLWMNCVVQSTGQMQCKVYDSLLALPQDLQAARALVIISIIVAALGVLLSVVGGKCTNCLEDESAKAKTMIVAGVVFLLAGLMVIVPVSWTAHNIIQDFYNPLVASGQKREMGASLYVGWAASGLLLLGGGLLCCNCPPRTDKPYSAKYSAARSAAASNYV
Protocol: as §3

[9] = target: T1, human CLDN6; assay: FACS on HepG2 tumour cells; target on the cells taken as CLDN6
Protocol: as §4
as §3, with “1×10⁵” for “1× 10⁵”, “A binding capacity” for “Binding capacities”, “each tumor cell was” for “CLDN9, CLDN3, and CLDN4 were”, “analyzed” for “analyzed separately”

[10] = target: T5, human CLDN3 (human, UniProt O15551 1-220); assay: FACS on 293T-CLDN3 cells, 10 µg/mL
T5 construct: whole, on cells; also called HEK293T-CLDN3
T5 sequence (looked up): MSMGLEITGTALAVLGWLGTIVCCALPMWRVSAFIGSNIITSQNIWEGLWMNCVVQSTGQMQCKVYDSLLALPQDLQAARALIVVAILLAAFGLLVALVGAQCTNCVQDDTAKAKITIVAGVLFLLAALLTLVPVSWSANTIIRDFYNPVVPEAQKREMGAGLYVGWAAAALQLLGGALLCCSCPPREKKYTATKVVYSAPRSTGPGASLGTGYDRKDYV
Protocol: as §3

[11] = target: T6, mouse CLDN6 (mouse, UniProt Q9Z262 1-219); assay: FACS on CHO-K1-Mouse CLDN6 cells
T6 construct: whole, on cells; also called CHO-K1-Mouse CLDN6
T6 sequence (looked up): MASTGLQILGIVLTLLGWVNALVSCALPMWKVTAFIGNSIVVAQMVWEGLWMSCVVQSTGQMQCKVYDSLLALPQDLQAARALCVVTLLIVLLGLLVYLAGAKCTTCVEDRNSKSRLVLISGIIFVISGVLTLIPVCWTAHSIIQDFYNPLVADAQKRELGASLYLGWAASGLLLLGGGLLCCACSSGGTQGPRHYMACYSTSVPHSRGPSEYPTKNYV

[12] = target: T1, human CLDN6; assay: FACS on PA-1 tumour cells; target on the cells taken as CLDN6; remark: listed apart in the source
Protocol: as §3, with “1×10⁵” for “1× 10⁵”, “A binding capacity” for “Binding capacities”, “each tumor cell was” for “CLDN9, CLDN3, and CLDN4 were”, “analyzed” for “analyzed separately”

[13] = target: T1, human CLDN6; assay: cell-based or functional assay
[14] = target: T1, human CLDN6; assay: FACS on HEK293T-CLDN6 cells; remark: listed apart in the source
Protocol: as §1, §2

[15] = target: T1, human CLDN6; assay: cell-based or functional assay; remark: listed apart in the source
[16] = target: T1, human CLDN6; assay: FACS on HepG2 tumour cells; target on the cells taken as CLDN6; remark: listed apart in the source
Protocol: as §3, with “1×10⁵” for “1× 10⁵”, “A binding capacity” for “Binding capacities”, “each tumor cell was” for “CLDN9, CLDN3, and CLDN4 were”, “analyzed” for “analyzed separately”

[17] = target: T1, human CLDN6; assay: binding to CLDN6-expressing cells; method not given

B1: 58G3C7 (antibody, human IgG1, kappa, V domains shown)
VH: EVQLVESGGGLVKPGGSLKLSCAASGFTFSNYAMSWVRQTPEKRLEWVATISDGGSYTSYPDNIKGRFTISRDNAKNNLYLQVTHLKSEDTAMYYCARDAILITTAGFAYWGQGTLLTVSA
VL: DIQMTQSSSSFSVSLGDRVTITCKASEDIYNRLAWYQQKPGNAPRLLISATTSLETGVPSRFSGSGSGKDYTLSITSLQTEDVATYYCQQYWSFPRTFGGGTKLEVKR
notes: chimeric: murine variable regions on human IgG1 constant regions
[1]
  Geom.Mean: 33800
[2]
  EC50: 0.16 µg/mL
[3]
  EC50: 0.135 µg/mL
[4]
  Geom.Mean: 731
[5]
  EC50: 0.232 µg/mL
[6]
  CLDN6/CLDN9 ratio: 46
[7]
  CLDN6/CLDN9 signal ratio: ~50 fold
[8]
  Geom.Mean: 8440

B2: 15H2D4 (antibody, human IgG1, kappa, V domains shown)
VH: QAYLQQSGAELVRSGASVKMSCKASGYTFTSYNIHWVKQTPGQGLEWIGYIYPGNGGTKYNERFKGKATLTADASSSTAYMQISSLTSEDSAVYFCARWRYYDRPTHYAMDYWGQGTSVTVSS
VL: DIVVTQSPASLAVSLGQRATISCRASKSVSTSGFSYLHWFQQKPGQPPKLLIYLASNLESGVPARFSGSGSGTDFTLNIHPVEEEDVAVYYCQHSREFPFTFGSGTKLEIKR
notes: as for B1
[1]
  Geom.Mean: 40800
[9]
  EC50: 0.481 µg/mL
[2]
  EC50: 0.351 µg/mL
[10]
  Geom.Mean: 139
[11]
  EC50: 0.117 µg/mL
[3]
  EC50: 0.274 µg/mL
[4]
  Geom.Mean: 88.4
[5]
  EC50: 0.137 µg/mL
[6]
  CLDN6/CLDN9 ratio: 462
[8]
  Geom.Mean: 5280

B3: 51C10H4 (antibody, human IgG1, kappa, V domains shown)
VH: EVQLQQSGPELVKPGASVKMSCKASGYTFTDYNMHWVKKSHGKSLEWIGYVNPNNGATSYNQKFKGKATLTVNKSSSTAYMELRSLTSEDSAVYNCARWDGYVYYYGLDYWGQGTSVTVSS
VL: DIQMTQSSSYLSVSLGGRVTITCKASDHINNWLAWYQQKPGNAPRLLISGATSLETGVPSRFSGSGSGKDYTLSITSLQTEDVATYYCQQYWSTPYTFGGGTKLEIKR
notes: chimeric IgG1
[1]
  Geom.Mean: 44900
[12]
  EC50: 0.34 µg/mL
[9]
  EC50: 0.294 µg/mL
[2]
  EC50: 0.722 µg/mL
[13]
  CDC dose-response fit: EC50: 0.178 µg/mL
  CDC dose-response fit: LogEC50: -0.75
[10]
  Geom.Mean: 103
[11]
  EC50: 0.935 µg/mL
[3]
  EC50: 0.354 µg/mL
[4]
  Geom.Mean: 248
[14]
  EC50: 0.235 µg/mL
[5]
  EC50: 0.538 µg/mL
[15]
  ADCC dose-response fit: EC50: 0.0483 µg/mL
  ADCC dose-response fit: LogEC50: -1.32
[6]
  CLDN6/CLDN9 ratio: 181
[16]
  EC50: 0.49 µg/mL
[7]
  CLDN6/CLDN9 signal ratio: ~200 fold
[8]
  Geom.Mean: 210

B4: 47D5D6 (antibody, human IgG1, kappa, V domains shown)
VH: EVQLVESGGDLVKPGGSLKLSCAASGFTFSSYGMSWVRQTPDKRLEWVATISSGGSYTYYPDSVKGRFTISRDNAKNTLYLQMSSLKSEDTAMYYCARPHYVSSYAMDYWGQGTSVTVSS
VL: B1 VL with A50G, T51A, F94T, R96P, V106I
notes: as for B1
[1]
  Geom.Mean: 33000
[2]
  EC50: 1.94 µg/mL
[10]
  Geom.Mean: 151
[11]
  EC50: 2.09 µg/mL
[3]
  EC50: 1.04 µg/mL
[4]
  Geom.Mean: 428
[6]
  CLDN6/CLDN9 ratio: 77
[7]
  CLDN6/CLDN9 signal ratio: ~50 fold
[8]
  Geom.Mean: 5620

B5: 51C10-M2 (antibody, human IgG1, kappa, V domains shown)
VH: B3 VH with N55Q
VL: B3 VL
notes: 51C10H4 with N of NG in heavy-chain CDR2 changed to Q; also called improved antibody 51C10-M2
[17]
  binding result: binds
